Results on two proteins are retold here after publication PMC2909203, “Defining the Functional Domain of Programmed Cell Death 10 through Its Interactions with Phosphatidylinositol-3,4,5-Trisphosphate” (PLoS ONE, 2010).

This data set concerns the molecule itself. Briefly: SEC-MALS; 0.2 to 0.4 mg/ml purified His-tag protein in 10 mM phosphate buffer, pH 7.0, 500 mM NaCl; self-association, dimer the only species. (In gel filtration, larger molecules generally elute earlier.)

B1: Recombinant murine 6xHis-PDCD10, wild type (natural protein)
chain: not shown
notes: PDCD10 (CCM3), murine, full length, amplified from a mouse fibroblast cDNA library and cloned into pMCSG7-His; 212 amino acids; Dimer in solution by SEC-MALS; also called CCM3; WT; not shown: 6xHis, N-terminal, kept
As to B1, the “stoichiometry N” value worked out at 2.

B2: Recombinant murine 6xHis-PDCD10 Δ5KA mutant (K169A, K172A, K179A, K183A, K186A) (natural protein)
chain: not shown
notes: PDCD10 (CCM3), murine, full length, with five K-to-A mutations made by site-directed mutagenesis; Dimer in solution by SEC-MALS; also called Δ5KA PDCD10; mutant Δ5KA ccm3; source: E. coli BL21DE3, purified; not shown: 6xHis, N-terminal, kept
As for B2, the “stoichiometry N” value is 2.

Usually stoichiometry N stands for the number of molecules, sites or subunits per partner or assembly.
